According to FireProtDB (doi:10.1021/bi00072a011):
Values joined by “and” are separate entries in the source; they are usually repeats but may differ in a detail not shown here. Equal values may be shown once.

B1: Tryptophan synthase alpha chain, P00929 (parent)
chain: MERYENLFAQLNDRREGAFVPFVTLGDPGIEQSLKIIDTLIDAGADALELGVPFSDPLADGPTIQNANLRAFAAGVTPAQCFEMLALIREKHPTIPIGLLMYANLVFNNGIDAFYARCEQVGVDSVLVADVPVEESAPFRQAALRHNIAPIFICPPNADDDLLRQVASYGRGYTYLLSRSGVTGAENRGALPLHHLIEKLKEYHAAPALQGFGISSPEQVSAAVRAGAAGAISGSAIVKIIEKNLASPKQMLAELRSFVSAMKAASRA

Variants of: B1
Details: Salmonella typhimurium (strain LT2 / SGSC1412 / ATCC 700720); pH 7.8; 25 °C; Urea; CD; Potassium phosphate 10 mM; transition: 3; structure 2WSY; whole UniProt chain shown

Variant	denaturant m value	denaturant midpoint (higher = more stable)	unfolding free energy	ddG of mutation (higher = less stable)
MERYENLFAQLNDRREGGFVPFVTLGDPGIEQSLKIIDTLIDAGADALELGVPFSDPLADGPTIQNANLRAFAAGVTPAQCFEMLALIREKHPTIPIGLLMYANLVFNNGIDAFYARCEQVGVDSVLVADVPVEESAPFRQAALRHNIAPIFICPPNADDDLLRQVASYGRGYTYLLSRSGVTGAENRGALPLHHLIEKLKEYHAAPALQGFGISSPEQVSAAVRAGAAGAVSGSAIVKIIEKNLASPKQMLAELRSFVSAMKAASRA [A18G I232V]	0.9 kcal/mol/M and 1.6 kcal/mol/M	2.08 M and 3.46 M	7.95 kJ/mol and 23.4 kJ/mol	
MERYENLFAQLNDRREGAFVPFVTLGDPGIEQSLKIIDTLIDAGADALELGVPFSDPLADGPTIQNANLRAFAAGVTPAQCFEMLALIREKHPTIPIGLLMYANLVFNNGIDAFYARCEQVGVDSVLVADVPVEESAPFRQAALRHNIAPIFICPPNADDDLLRQVASYGRGYTYLLSRSGVTGAENRGALPLHHLIEKLKEYHAAPALQGFGISSPEQVSAAVRAGAAGAVSGSAIVKIIEKNLASPKQMLAELRSFVSAMKAASRA [I232V]	1.5 kcal/mol/M and 1.3 kcal/mol/M	2.31 M and 3.28 M	14.6 kJ/mol and 18 kJ/mol	16.3 kJ/mol and 6.28 kJ/mol
MERYENLFAQLNDRREGAFVPFVTLGDPGIEQSLKIIDTLIDAGADALELGVPFSDPLADGPTIQNANLRAFAAGVTPAQCFEMLALIREKHPTIPIGLLMYANLVFNNGIDAFYARCEQVGVDSVLVADVPVEESAPFRQAALRHNIAPIFICPPNADDDLLRQVASYGRGYTQLLSRSGVTGAENRGALPLHHLIEKLKEYHAAPALQGFGISSPEQVSAAVRAGAAGAISGSAIVKIIEKNLASPKQMLAELRSFVSAMKAASRA [Y175Q]	2.9 kcal/mol/M and 2.7 kcal/mol/M	2.05 M and 2.91 M	25.1 kJ/mol and 33.1 kJ/mol	
MERYENLFAQLNDRREGAFVPFVTLGDPGIEQSLKIIDTLIDAGADALELGVPFSDPLADGPTIQNANLRAFAAGVTPAQCFEMLALIREKHPTIPIGLLMYANLVFNNGIDAFYARCEQVGVDSVLVADVPVEESAPFRQAALRHNIAPIFICPPNADDDLLRQVASYGRGYTQLLSRSGVTGAENRGALPLHHLIEKLKEYHAAPAVQGFGISSPEQVSAAVRAGAAGAISGSAIVKIIEKNLASPKQMLAELRSFVSAMKAASRA [Y175Q L209V]	1.6 kcal/mol/M and 2.2 kcal/mol/M	2.23 M and 4.32 M	15.1 kJ/mol and 40.6 kJ/mol	
MERYENLFAQLNDRREGAFVPFVTLGDPGIEQSLKIIDTLIDAGADALELGVPFSDPLADGPTIQNANLRAFAAGVTPAQCFEMLALIREKHPTIPIGLLMYANLVFNNGIDAFYARCEQVGVDSVLVADVPVEESAPFRQAALRHNIAPIFICPPNADDDLLRQVASYGRGYTYLLSRSGVTGAENRGALPLHHLIEKLKEYHAAPAVQGFGISSPEQVSAAVRAGAAGAISGSAIVKIIEKNLASPKQMLAELRSFVSAMKAASRA [L209V]	1.7 kcal/mol/M and 1.1 kcal/mol/M	2.3 M and 3.44 M	16.7 kJ/mol and 15.9 kJ/mol	14.2 kJ/mol and 8.37 kJ/mol
MERYENLFAQLNDRREGVFVPFVTLGDPGIEQSLKIIDTLIDAGADALELGVPFSDPLADGPTIQNANLRAFAAGVTPAQCFEMLALIREKHPTIPIGLLMYANLVFNNGIDAFYARCEQVGVDSVLVADVPVEESAPFRQAALRHNIAPIFICPPNADDDLLRQVASYGRGYTYLLSRSGVTGAENRGALPLHHLIEKLKEYHAAPALQGFGISSPEQVSAAVRAGAAGAVSGSAIVKIIEKNLASPKQMLAELRSFVSAMKAASRA [A18V I232V]	2.1 kcal/mol/M and 1.8 kcal/mol/M	2.12 M and 3.73 M	18.4 kJ/mol and 28.5 kJ/mol	
MERYENLFAQLNDRREGGFVPFVTLGDPGIEQSLKIIDTLIDAGADALELGVPFSDPLADGPTIQNANLRAFAAGVTPAQCFEMLALIREKHPTIPIGLLMYANLVFNNGIDAFYARCEQVGVDSVLVADVPVEESAPFRQAALRHNIAPIFICPPNADDDLLRQVASYGRGYTYLLSRSGVTGAENRGALPLHHLIEKLKEYHAAPALQGFGISSPEQVSAAVRAGAAGAISGSAIVKIIEKNLASPKQMLAELRSFVSAMKAASRA [A18G]	1.7 kcal/mol/M	1.88 M	13.8 kJ/mol	17.2 kJ/mol
MERYENLFAQLNDRREGVFVPFVTLGDPGIEQSLKIIDTLIDAGADALELGVPFSDPLADGPTIQNANLRAFAAGVTPAQCFEMLALIREKHPTIPIGLLMYANLVFNNGIDAFYARCEQVGVDSVLVADVPVEESAPFRQAALRHNIAPIFICPPNADDDLLRQVASYGRGYTYLLSRSGVTGAENRGALPLHHLIEKLKEYHAAPALQGFGISSPEQVSAAVRAGAAGAISGSAIVKIIEKNLASPKQMLAELRSFVSAMKAASRA [A18V]	1.5 kcal/mol/M	3.77 M and 2.24 M	24.3 kJ/mol and 13.8 kJ/mol	
